Experiments:
[1] = target: T1, recombinant human EGFR extracellular domain with 6xHis (human, UniProt P00533 25-645); assay: SPR competition, competitor Erbitux
T1 construct: In-house produced; also called 6xHis EGFR ECD; soluble human EGFR ECD; not shown: 6xHis tag
Procedure: (§1) SPR analysis was performed on a Biacore 3000 machine containing four flow cells. A CM5 Biacore chip was conjugated with 10,000 Resonance units (Ru) polyclonal anti-His antibody to flow cells 1-4 according to the manufacturer's instructions. […] Immediately after antigen injection the maximal binding of the Anti-EGFR mAb without competition was established in each flow cell during a reference run. Briefly 5 μl antibody at a concentration of 40 μg/ml was injected over all flow cells with captured EGFR followed by stripping of the antibody/antigen complex with a low pH acid wash (10 sec. contact time with 10 mM Glycine-HCl, pH2). After the determination of Anti-EGFR antibody maximal binding to each flow cell, a competition run was performed during the same Biacore cycle. Flow cells were first saturated with EGFR ECD antigen followed by injection of different reference antibodies or Anti-EGFR antibodies into separate flow cells using the same antigen saturating conditions as outlined above. This step was immediately followed by a second injection of Anti-EGFR antibody over the flow cell saturated with EGFR antigen and competition antibody to minimize the dissociation of either antigen or blocking antibody. Then the antibody/antigen complexes were stripped off with a low pH acid wash (10 sec. contact time with 10 mM Glycine-HCl, pH 2) and the whole cycle beginning with the reference run was repeated with a new Anti-EGFR antibody. The degree of inhibition of tested Anti-EGFR antibodies were determined by comparing the Ru max value of the individual Anti-EGFR antibody before and after competition by introduction of report points recorded two seconds before and after injection of each sample.

[2] = target: T1, recombinant human EGFR extracellular …; assay: SPR competition, competitor 1284
Procedure: as §1

[3] = target: T1, recombinant human EGFR extracellular …; assay: SPR competition, competitor Erbitux; remark: listed apart in the source
Procedure: as §1

[4] = target: T1, recombinant human EGFR extracellular …; assay: SPR competition, competitor 1277
Procedure: as §1

[5] = target: T1, recombinant human EGFR extracellular …; assay: SPR competition, competitor 1344
Procedure: as §1

[6] = target: T1, recombinant human EGFR extracellular …; assay: SPR competition, competitor Vectibix
Procedure: as §1

[7] = target: T1, recombinant human EGFR extracellular …; assay: SPR competition, competitor 992 corr
Procedure: as §1

[8] = target: T1, recombinant human EGFR extracellular …; assay: SPR competition, competitor 1254
Procedure: as §1

[9] = target: T1, recombinant human EGFR extracellular …; assay: SPR competition, competitor 1024
Procedure: as §1

[10] = target: T1, recombinant human EGFR extracellular …; assay: SPR competition, competitor 1260
Procedure: as §1

[11] = target: T1, recombinant human EGFR extracellular …; assay: SPR competition, competitor 1030corr
Procedure: as §1

[12] = target: T1, recombinant human EGFR extracellular …; assay: SPR competition, competitor 1308
Procedure: as §1

[13] = target: T1, recombinant human EGFR extracellular …; assay: SPR competition, competitor 1257
Procedure: as §1

[14] = target: T1, recombinant human EGFR extracellular …; assay: SPR competition, competitor 1347
Procedure: as §1

[15] = target: T1, recombinant human EGFR extracellular …; assay: SPR competition, competitor ICR10
Procedure: as §1

[16] = target: T1, recombinant human EGFR extracellular …; assay: SPR competition, competitor 1320
Procedure: as §1

[17] = target: T1, recombinant human EGFR extracellular …; assay: SPR competition, competitor 1261
Procedure: as §1

[18] = target: T1, recombinant human EGFR extracellular …; assay: SPR competition, competitor 1208
Procedure: as §1

[19] = target: T1, recombinant human EGFR extracellular …; assay: SPR competition, competitor Ab-3
Procedure: as §1

[20] = target: T1, recombinant human EGFR extracellular …; assay: SPR competition, competitor Vectibix; remark: listed apart in the source
Procedure: as §1

[21] = target: T1, recombinant human EGFR extracellular …; assay: SPR competition, competitor Ab-5
Procedure: as §1

[22] = target: T1, recombinant human EGFR extracellular …; assay: SPR competition, competitor Ab-10
Procedure: as §1

[23] = target: T1, recombinant human EGFR extracellular …; assay: SPR competition, competitor Ab-1
Procedure: as §1

[24] = target: T1, recombinant human EGFR extracellular …; assay: SPR competition, competitor Ab-11
Procedure: as §1

[25] = target: T1, recombinant human EGFR extracellular …; assay: SPR competition, competitor 1449
Procedure: as §1

Row | Binder | % inhibition [1] [%] | % inhibition [2] [%] | % inhibition [3] [%] | % inhibition [4] [%] | % inhibition [5] [%] | % inhibition [6] [%] | % inhibition [7] [%] | % inhibition [8] [%] | % inhibition [9] [%] | % inhibition [10] [%] | % inhibition [11] [%] | % inhibition [13] [%] | % inhibition [14] [%] | % inhibition [15] [%] | % inhibition [16] [%] | % inhibition [17] [%] | % inhibition [18] [%] | % inhibition [19] [%] | % inhibition [20] [%] | % inhibition [21] [%] | further results
1 | antibody 1208 (antibody, human IgG1, kappa, V domains shown, Chimeric IgG1 kappa; also called clone 1208) VH: EVQLVESGGGLVKPGGSLKLSCAASGFAFSSYDMSWVRQTPEKRLEWVAYIGSGDDNTHYPDSVKGRFTISRHNAKNTLYLQMSSLKSEDTAMYYCARQKYGNYGDTMDYWGQGTSVTVSS VL: DVVMTQTPLSLPVSLGDQASISCRSSQSLVHSNGNTYLHWYLQKPGQSPKLLIYKVSNRFSGVPDRFSGSGSGTDFTLKISRVEAEDLGVYFCSQSTHVPTFGGGTKLEIKR | 18 | 4 | 18 | 40 | 7 | 29 | 100 | 33 | 3 | 4 | 27 | 9 | 4 | 5 | 30 | 13 | 78 | 5 | 25 | 66 | % inhibition [12]: 5%; % inhibition [22]: 32%; % inhibition [23]: 37%; % inhibition [24]: 4%
2 | antibody 1344 (antibody, human IgG1, kappa, V domains shown, Chimeric IgG1 kappa) VH: QVQLKESGPGLVAPSQSLSITCTVSGFSLTIYGVHWVRQPPGKGLEWLGVIWAGGNTNYNSALMSRLSISKDNSKSQVFLKMNSLQTDDTAMYFCARGYGYNLDYWGQGTTLTVSS VL: DIQMTQTTSSLSASLGDRVTISCSASQGISNYLNWYQQKPDGTVKLLIYYTSSLHSGVPSRFSGSGSGTDYSLTISNLEPEDIATYYCQQYSKLPYTFGGGTKLEIKR | -4 | 81 | -4 | 10 | 83 | -5 | 9 | 10 | 3 | 87 | 31 | 83 | 15 | 87 | 8 | 71 | 3 | 25 | 8 | -3 | % inhibition [12]: 73%; % inhibition [22]: 0%; % inhibition [23]: -2%; % inhibition [24]: 86%
3 | antibody 1260 (antibody, human IgG1, kappa, V domains shown, Chimeric IgG1 kappa) VH: QVQLKESGPGLVAPSQSLSITCTVSGFSLTTYGVHWVRQPPGKGLEWLGVIWAGGSTNYNSALMSRLSIKKDNSKSQVFLKMNSLQTDDTAMYYCARAYGYNFDYWGQGTTLTVSS VL: DIQMTQTTSSLSASLGDRVTISCSASQGITNYLNWYQQKPDGTVKLLIYYSSSLHSGVPSRFSGSGSGTDYSLTISNLEPEDIATYYCQQYSEIPYTFGGGTKLELKR | 8 | 67 | 8 | 25 | 83 | 10 | -10 | 22 | 33 | 88 | 18 | 55 | 46 | 91 | 26 | 97 | 33 | 64 | 31 | 1 | % inhibition [25]: 29%; % inhibition [22]: 12%; % inhibition [23]: 7%; % inhibition [24]: 99%

The next lines start with results.

Row | % inhibition [1] [%] | % inhibition [2] [%] | % inhibition [3] [%] | % inhibition [4] [%] | % inhibition [5] [%] | % inhibition [6] [%] | % inhibition [7] [%] | % inhibition [8] [%] | % inhibition [9] [%] | % inhibition [10] [%] | % inhibition [11] [%] | % inhibition [13] [%] | % inhibition [14] [%] | % inhibition [15] [%] | % inhibition [16] [%] | % inhibition [17] [%] | % inhibition [18] [%] | % inhibition [19] [%] | % inhibition [20] [%] | % inhibition [21] [%] | Binder | further results
4 | -4 | 61 | -4 | 6 | 38 | -6 | 7 | 0 | 4 | 41 | -2 | 19 | 70 | 17 | 2 | -23 | 0 | 11 | -5 | -1 | antibody 1347 (antibody, human IgG1, kappa, V domains shown, Chimeric IgG1 kappa) VH: QVQLKESGPGLVAPSQSLSITCTVSGFSLTGHGVNWVRQPPGKGLEWLGMIWGDGSTDYNSTLKSRLSISKDNSKSQVFLKMNSLQTDDTARYYCARGYGYLYYFDYWGQGTTLTVSS VL: ENVLTQSPAIMSASPGEKVTMTCRASSSVSSSYLHWYQQKSGASPKLWIYSTSNLASGVPARFSGSGSGTSYSLTVNSVETEDAATYYCHQYSGFPFTFGSGTKLELKR | % inhibition [12]: 82%; % inhibition [22]: -1%; % inhibition [23]: -3%; % inhibition [24]: 86%
5 | -6 | 76 | -6 | 7 | 67 | -8 | -9 | 0 | 3 | 86 | -2 | 27 | 65 | 15 | 2 | -9 | 1 | 11 | -7 | -4 | antibody 1308 (antibody, human IgG1, kappa, V domains shown, Chimeric IgG1 kappa) VH: EVQLQQSGAELVRPGSSVKISCKASGYAFSSYWMNWVRQRPGQGLEWIGQIYPGDGDTNYNGKFKGRATLTANKSSSTAYMQLSSLTSEDSAVYFCARRASSLYDVYPYYFDYWGQGTTLTVSS VL: DIQMTQTTSSLSASLGDRVTISCRASQDISNYLNWYQQKPDGTVKVLIYYTSRLHSGVPSRFSGSGSGTDYSLTISNLEQEDIATYFCQQGNTLPYTFGGGTKLEIKR | % inhibition [12]: 75%; % inhibition [22]: -3%; % inhibition [23]: -5%; % inhibition [24]: 85%

— US20110135636A1 (SYMPHOGEN A S, published 2011)
